Assay results taken from patent US20240218057A1 (ROCKEFELLER UNIVERSITY, published 2024).

B1: C1057 (antibody, V domains shown)
VH: QVQLVQSGAEVKKPGSSVKVSCKASGGTFTTYIISWVRQAPGQGLEWMGGISPMLGTANYAQKFQGGVTITADESTTTAYMEMSGLRSEDTAVYYCARAHMYCSDGSCYRQSGYFDSWGQGTLVTVSS
VL: QSALTQPRSVSGSPGQSVTITCTGTSSNVGGYKYVSWFQQHPGKAPKFLIYDVSERSSGVPDRFSGSKSGNTASLTISGLQAEDEADYYCCSYAGKYTVVFGGGTRLTV
B2: C1065 (antibody, V domains shown)
VH: EVQLVESGGGLIQPGGSLRLSCAASGFTVSRNYMSWVRQAPGKGLEWVSVIYSGGSTFYADSVKGRFTISRDNSKNTLYLQMNSLRAEDTAVYYCARGLPTGEGWNYFDYWGQGTLVTVSS
VL: QSALTQPASVSGSPGQSITISCTGTSSDIGGYHYVSWYQQHPGKAPKLMIYDVSNRPSGISNRFSGSKSGNTASLTISGLQAEDEADYYCSSYASSSVIFGGGTKLTVL
B3: C1067 (antibody, V domains shown)
VH: QVQLVQSGAEVKKPGASVKVSCKASRDTFTTHYIHWVRQAPGQGLEWMGIINPSGGSISYAQKFQGRVTMTRDTSTSTVYMELSSLRSEDTAVYYCARGGIVPHLSNWFDPWGQGTLVTVSS
VL: EIVLTQSPGTLSLSPGERATLSCRASQSVSSSYLAWYQQKPGQAPRLLIYGASSRATGIPDRFTGSGSGTDFTLTISRLEPEDFAVYYCQQYGRSSGFTFGPGTKVDIK
B4: C907 (antibody, V domains shown)
VH: QVQLQESGPGLVKPSETLSLTCTVSGGSITSYYWTWIRQSPGKGLEWIGYIYYIGSTNYNPSLKSRLTISLATSKNQFSLRLNSVTAADTAVYYCASYYNDTSGYSYGLDVWGQGTTVTVSS
VL: DIQMTQSPSSLSAFVGDRVTITCRAGQSISSYLHWYQQKPGKAPKLLIYATSTLQSGVPSRFSGRGSGTDFTLTISGLQPEDFATYYCQQSYSTPQTFGQGTKVEIK
B5: C908 (antibody, V domains shown)
VH: EVQLVQSGAEVKKPGESLKISCKASGYSFTIYWIGWVRQMPGKGLEWMGIIYPGESETRYSPSFQGQVTISADKSISTAYLQWRSLKASDTAMYYCARGGPPGGVKLELTDYWGQGTLVTVSS
VL: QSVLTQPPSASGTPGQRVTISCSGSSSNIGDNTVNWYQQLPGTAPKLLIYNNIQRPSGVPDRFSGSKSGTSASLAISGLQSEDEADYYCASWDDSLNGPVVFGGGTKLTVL
B6: C1063 (antibody, V domains shown)
VH: EVQLVQSGAEVKKPGESLKISCKGYGNSFNNYWIAWVRQMPVKGLEWMGVINPGDSDTRYSPSFQGQVTISVDKSISTAYLQWSSLKASDTAMYYCARTWSPAAVAFFDSWGQGTLVTVS
VL: NFMLTQPHSVSESPGKTVTISCTRSSDSIGSNYVQWYQQRPGSSPTIVIYEDSQRPSGVPHRFSGSFDSSSNSASLTISGLKTEDEADYYCQSWDSGNLVFGGGTKLTVL
B7: C1060 (antibody, V domains shown)
VH: EVQLVESGGDLVQPGGSLRLSCAASEIIVSRNYMNWVRQAPGKGLEWVSIIYSGGSTFYGDSVKGRFTISRDSSKNTLYLQMHGLRVEDTAIYYCARSYGDYYIDYWGQGTLVTVSS
VL: DIQMTQSPSSVSASVGDRVTITCRTSQSISTSLAWYQQKPGKAPKLLIYAASSLQRGVPSRFSGTGSGTDFTLTISSLQPEDFATYYCQQSSSSPPLFTFGPGTKVDIK
B8: C911 (antibody, V domains shown)
VH: QVQLVESGGGVVQPGGSLRLSCAASAFTFSSYAMHWIRQSPGKGLEWVAVISSDGSSKFYADSVKGRFTISRDNSKNTLYLQMNSLSAEDTAVYYCARDLENVLIEVALQDWGQGTLVTVSS
VL: DIQMTQSPSSLSASVGDRVTITCRASQSINSYLNWYQQKPGKAPKLLIYAASSLHSGVPSRFSGSGSGTDFTLTISSLQPEDFATYYCQQSYTTLALTFGGGTKVEIK
B9: C903 (antibody, V domains shown)
VH: EVQLVESGGGLIQPGGSLRLSCAASGFIVSRNYMSWVRQAPGKGLEWVSIIYSGGSTFYADSVKGRFTISRDNSKNTVYLQMNSLRAEDTAVYYCARDYGDFYFDYWGQGTLVTVSS
VL: EIVLTQSPGTLSLSPGERATLSCRASQSVSSSYLAWYQQKPGQAPRLLIFDVSSRATGIPDRFSGSGSGTDFTLTISRLEPEDFAVYYCQQYGSSPRTFGQGTKVEIK
B10: C1068 (antibody, V domains shown)
VH: QVQLVESGGGVVQPGRSLRLSCAASGFTFSTFAMHWVRQAPGKGLEWVAVTSYDGSNKYYADSVKGRFTISRDNSKNTLYLQMNSLRAEDTAVYYCARGLLWFGESEYFQHWGQGTLVTVSS
VL: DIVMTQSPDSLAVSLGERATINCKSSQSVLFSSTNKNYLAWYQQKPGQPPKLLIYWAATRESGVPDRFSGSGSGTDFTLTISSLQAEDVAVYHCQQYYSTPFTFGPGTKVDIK
B11: C1066 (antibody, V domains shown)
VH: EVQLVESGGGLVQPGRSLRLSCAASGFMFDDYAMHWVRQAPGKGLEWVSGINWSSADIGYVDSVKGRFTISRDNAKNSLYLQMNSLRTEDTAFYYCAKGWFGELLGGSDSWGQGTLVTVSS
VL: QLVLTQSSSASASLGSSVKLTCTLNSGHSSYIIAWHQQQPGKAPRYLMKLEGSGSYNKGSGVPDRFSGSSSGADRYLTISNLQFEDEADYYCATWDSNTQVFGGGTKLTVL
B12: C904 (antibody, V domains shown)
VH: QVQLQQWGAGLLKPSETLSLTCAVNGGSLSLYYWSWIRQSPGKGLEWIGEINHFGGSDYKPSLKSRVSISVDTSTNQFSLKLSSVTAADTAVYYCARKPLLHSNISPGAFDIWGQGTMVTVSS
VL: EIVLTQSPGTLSLSPGERATLSCRASQSVAGSYLAWYQQKPGQAPRLLIYGASSRATGVPDRISGSGSGTDFTLTISRLEPEDFAVYYCQQYTNTPRTFGGGTKVEI
B13: C912 (antibody, V domains shown)
VH: QVQLVESGGGVVQPGRSLRLSCAASGFSFSTYTMHWVRQTPDKGLEWVAVISDDGKNKYYADSMKGRFTISRDNSKNTLYLQMSSLRPEDTAVYYCARDLENVMIEVALESWGQGTLVTVSS
VL: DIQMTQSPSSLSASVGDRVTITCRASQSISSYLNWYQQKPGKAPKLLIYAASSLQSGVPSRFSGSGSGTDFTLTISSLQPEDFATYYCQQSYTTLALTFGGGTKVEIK
B14: C906 (antibody, V domains shown)
VH: EVQLVESGGGLIKPGRSLRLSCTASGFTFGDYAMTWFRQAPGKGLEWVGFIRSKAYGGTTGYAASVKYRFTISRDDSKSIVYLQMDSLKTEDTAVYYCTRWDGWSQHDYWGQGTLVTVSS
VL: DIVMTQSPLSLSVTPGEPASISCRSSQSLLHSNGINYFDWYLQKPGQSPQLLIYLGSNRASGVPDRFSGSGSGTDFTLKISRVEAEDVGVYYCMQVLQIPYTFGQGTKLEI
B15: C905 (antibody, V domains shown)
VH: QVQLQESGPGLVTPSQTLSLTCSVSGGSIHSRDFYWGWIRQHPGKGLEWIGHIYYTGNTYYNPSLKSRVTISADTSKNQFSLKLSSVTAADTAVYYCARATVVITLHWFDPWGQGTLVTVSS
VL: NFMLTQPHSVSESPGKTVTISCTGSGGSIASNYVQWYQQRPGSAPTTVIYEDNERPSGVPDRFSGSIDSSSNSASLTISGVKTEDEADYFCQSYDVGNPVIFGGGTKLTVL
B16: C910 (antibody, V domains shown)
VH: QVQLVQSGAAVKKPGASVKVSCKASGYTFTSYDINWVRQAPGQGLEWMGWMNPNSGNTGFAQRFQGRATLSRDTSITTAYMELTTLRSEDTAVYYCARGRANYNSKFLLDNWGQGTLVTVSS
VL: QSALTQPASVSGSPGQSITISCTGTSSDVGSYNLVSWYQQHPGTAPKLMIYEGSKRPSGVSDRFSGYKSGNTASLTISGLQADDEADYYCCSFAGSTTRYVFGTGTRVTVL
B17: C909 (antibody, V domains shown)
VH: QVQLVQSGAEVKKPGASVKVSCRASGYTFPNYDLNWVRQATGQGLEWMGWMNPNSGNTGYAQKFQGRITMTRITSISTAYMELSSLRSEDTAVYYCARGRANWNSNFLLDSWGQGTLVTVSS
VL: QSALTQPASVSGSPGQSITISCTGTSSDVGGYNLVSWYQQYPGNVPKLMIYEDAKRPSGVSNRFSGSKSANTASLTISGLQAEDEADYYCCSYAGSSTRYVFGTGTKVTVL

The binders below were run against T1, SARS-COV-2 RBD (SARS-COV-2, UniProt P0DTC2 319-539) (assay: ELISA, RBD coated on plate).
T1 construct: also called WT RBD
In the case of B1, the EC50 is reported as 2.17 ng/mL.
For B2, the EC50 was 3.52 ng/mL.
B3 showed an EC50 of 2.93 ng/mL.
B4 gave an EC50 of 3.71 ng/mL.
B5 was tested, and the EC50 was 1.27 ng/mL.
Work on B6 yielded an EC50 of 3.04 ng/mL.
For B7, the EC50 was 2.67 ng/mL.
B8 was tested, and the EC50 was 2.36 ng/mL.
Work on B9 yielded an EC50 of 2.54 ng/mL.
In the case of B10, the EC50 is reported as 2.48 ng/mL.
B11 showed an EC50 of 3.01 ng/mL.
For B12, the EC50 was 3.31 ng/mL.
For B13, the EC50 was 2.45 ng/mL.
Work on B14 yielded an EC50 of 1.07 ng/mL.
Work on B15 yielded an EC50 of 3.06 ng/mL.
B16 was tested, and the EC50 was 2.47 ng/mL.
B17 was tested, and the EC50 was 3.24 ng/mL.
